Data on 2 molecules can be found in article PMC10264073, “Biological condensates form percolated networks with molecular motion properties distinctly different from dilute solutions” (eLife, 2023).

The target of data set [1] is MBP-His6-GCN4-Dimer. Put plainly: SEC-MALS; FPLC coupled with static light scattering; Superose 12 10/300 GL; 50 mM Tris pH 8.2, 100 mM NaCl, 1 mM EDTA, 2 mM DTT; loading concentration not shown.
Data set [2] concerns the molecule itself. In words: SEC-MALS; FPLC coupled with static light scattering; Superose 12 10/300 GL; 50 mM Tris pH 8.2, 100 mM NaCl, 1 mM EDTA, 2 mM DTT; loading concentrations 30 μM and 150 μM.

Molecule MBP-His6-GCN4-Dimer registered a stoichiometry N in data set [1] of 2.

B1: PrLD-SAMWT fusion protein (FUS PrLD fused to the Shank3 SAM domain; MBP-PrLD-SAMWT-GB1) (other, UniProt P56959 1-212, looked up)
chain: CMASNDYTQQATQSYGAYPTQPGQGYSQQSSQPYGQQSYSGYGQSADTSGYGQSSYGSSYGQTQNTGYGTQSAPQGYGSTGGYGSSQSSQSSYGQQSSYPGYGQQPAPSSTSGSYGGSSQSSSYGQPQSGGYGQQSGYGGQQQSYGQQQSSYNPPQGYGQQNQYNSSSGGGGGGGGGNYGQDQSSMSGGGGGGGYGNQDQSGGGGGGYGGGQQGPRRPFQQKPLQLWSKFDVGDWLESIHLGEHRDRFEDHEIEGAHLPALTKEDFVELGVTRVGHRMNIERALRQLDGS
notes: FUS prion-like domain (PrLD), UniProt P56959, segment 1-212; SAM domain of Shank3 (aa 1654-1730), UniProt Q4ACU6, fused to the C-terminal end of PrLD; The light-scattering legend calls it only 'PrLD-SAMWT fusion protein (theoretical MW 80.7 kDa)'; also called PrLD-SAM chimera; source: E. coli BL21 (DE3), purified (Ni2+-NTA, size-exclusion chromatography); not shown: MBP, N-terminal, kept; GB1, …
With B1, in data set [2], the binding result was “binds”.
